Where a chain is given by its changes, count along the chain named. Numbers in names are those of the source. Each block holds one molecule with its values, some of them ahead of it.
Columns and labels:
[1] = molecular target: LdcI-Dendra2_(T69A) (C-terminal fluorescent protein fusion of LdcI) (E. coli | not stated); test: negative stain EM
[2] = molecular target: Dendra2_(T69A)-LdcI (N-terminal fluorescent protein fusion of LdcI) (not stated | E. coli); test: negative stain EM
[3] = molecular target: LdcI E445A/D447A/R468E (E. coli) (UniProt P0A9H3); test: negative stain EM
[4] = molecular target: LdcI R97E/R468E (E. coli) (UniProt P0A9H3); test: negative stain EM
LdcI R468E (E. coli) = LdcI R468E (E. coli) (UniProt P0A9H3); test: negative stain EM
negative stain EM [5] = molecular target: the molecule itself; test: negative stain EM
cryo-EM structure = molecular target: the molecule itself; test: cryo-EM structure
negative stain EM [6] = molecular target: the molecule itself; test: negative stain EM; remark: listed apart in the source

stoichiometry N [1]: 10
Molecule: LdcI-Dendra2_(T69A) (C-terminal fluorescent protein fusion of LdcI)

stoichiometry N [2]: 2
Molecule: Dendra2_(T69A)-LdcI (N-terminal fluorescent protein fusion of LdcI)

stoichiometry N [3]: 10
Molecule: LdcI E445A/D447A/R468E (from UniProt P0A9H3 1-715) (enzyme)

stoichiometry N [4]: 10
Molecule: LdcI R97E/R468E (from UniProt P0A9H3 1-715) (enzyme)

stoichiometry N (LdcI R468E (E. coli)): 10
Molecule: LdcI R468E (from UniProt P0A9H3 1-715) (enzyme)

B1: LdcI H694A (enzyme, E. coli, UniProt P0A9H3 1-715, looked up)
chain: MNVIAILNHMGVYFKEEPIRELHRALERLNFQIVYPNDRDDLLKLIENNARLCGVIFDWDKYNLELCEEISKMNENLPLYAFANTYSTLDVSLNDLRLQISFFEYALGAAEDIANKIKQTTDEYINTILPPLTKALFKYVREGKYTFCTPGHMGGTAFQKSPVGSLFYDFFGPNTMKSDISISVSELGSLLDHSGPHKEAEQYIARVFNADRSYMVTNGTSTANKIVGMYSAPAGSTILIDRNCHKSLTHLMMMSDVTPIYFRPTRNAYGILGGIPQSEFQHATIAKRVKETPNATWPVHAVITNSTYDGLLYNTDFIKKTLDVKSIHFDSAWVPYTNFSPIYEGKCGMSGGRVEGKVIYETQSTHKLLAAFSQASMIHVKGDVNEETFNEAYMMHTTTSPHYGIVASTETAAAMMKGNAGKRLINGSIERAIKFRKEIKRLRTESDGWFFDVWQPDHIDTTECWPLRSDSTWHGFKNIDNEHMYLDPIKVTLLTPGMEKDGTMSDFGIPASIVAKYLDEHGIVVEKTGPYNLLFLFSIGIDKTKALSLLRALTDFKRAFDLNLRVKNMLPSLYREDPEFYENMRIQELAQNIHKLIVHHNLPDLMYRAFEVLPTMVMTPYAAFQKELHGMTEEVYLDEMVGRINANMILPYPPGVPLVMPGEMITEESRPVLEFLQMLCEIGAHYPGFETDIAGAYRQADGRYTVKVLKEESKK
binding result (negative stain EM [5]): binds

B2: E. coli inducible lysine decarboxylase LdcI, wild type (enzyme, UniProt P0A9H3 1-715, looked up)
chain: B1 chain with A694H
stoichiometry N (cryo-EM structure): 10

B3: LdcI H694N (enzyme, E. coli, UniProt P0A9H3 1-715, looked up)
chain: B1 chain with A694N
binding result (negative stain EM [5]): binds

B4: LdcI-mGeosM (C-terminal fluorescent protein fusion of LdcI) (other)
chain: B1 chain with A694H
stoichiometry N (negative stain EM [6]): 10

B5: LdcI R97E (enzyme, E. coli, UniProt P0A9H3 1-715, looked up)
chain: B1 chain with R97E, A694H
binding result (negative stain EM [5]): binds

B6: LdcI E445A/D447A (enzyme, E. coli, UniProt P0A9H3 1-715, looked up)
chain: B1 chain with E445A, D447A, A694H
binding result (negative stain EM [5]): binds

B7: mGeosM-LdcI (N-terminal fluorescent protein fusion of LdcI) (other)
chain: MSAIKPDMKIKLRMEGNVNGHHFVIDGDGTGKPFEGKQSMDLEVKEGGPLPFAFDILTTAFMYGNRVFAKYPDNIQDYFKQSFPKGYSWERSLTFEDGGICIARNDITMEGDTFYNKVRFYGTNFPANGPVMQKKTLKWEPSTEKMYVRDGVLTGDIHMALLLEGNAHYRCDSRTTYKAKEKGVKLPGYHFVDHCIEILSHDKDYNKVKLYEHAVAHSGLPDNARRMNVIAILNHMGVYFKEEPIRELHRALERLNFQIVYPNDRDDLLKLIENNARLCGVIFDWDKYNLELCEEISKMNENLPLYAFANTYSTLDVSLNDLRLQISFFEYALGAAEDIANKIKQTTDEYINTILPPLTKALFKYVREGKYTFCTPGHMGGTAFQKSPVGSLFYDFFGPNTMKSDISISVSELGSLLDHSGPHKEAEQYIARVFNADRSYMVTNGTSTANKIVGMYSAPAGSTILIDRNCHKSLTHLMMMSDVTPIYFRPTRNAYGILGGIPQSEFQHATIAKRVKETPNATWPVHAVITNSTYDGLLYNTDFIKKTLDVKSIHFDSAWVPYTNFSPIYEGKCGMSGGRVEGKVIYETQSTHKLLAAFSQASMIHVKGDVNEETFNEAYMMHTTTSPHYGIVASTETAAAMMKGNAGKRLINGSIERAIKFRKEIKRLRTESDGWFFDVWQPDHIDTTECWPLRSDSTWHGFKNIDNEHMYLDPIKVTLLTPGMEKDGTMSDFGIPASIVAKYLDEHGIVVEKTGPYNLLFLFSIGIDKTKALSLLRALTDFKRAFDLNLRVKNMLPSLYREDPEFYENMRIQELAQNIHKLIVHHNLPDLMYRAFEVLPTMVMTPYAAFQKELHGMTEEVYLDEMVGRINANMILPYPPGVPLVMPGEMITEESRPVLEFLQMLCEIGAHYPGFETDIHGAYRQADGRYTVKVLKEESKK
stoichiometry N (negative stain EM [6]): 12

Reference: paper doi:10.1101/2020.05.12.090381 (bioRxiv, 2020)
